Experimental findings from patent publication US20260049151A1 (SHENGHE CHINA BIOPHARMACEUTICAL, published 2026) are described below.

In experiment [1] the target is T1, Human-TNFR2-His (human, UniProt P20333 23-257).
T1 construct: Bought protein; also called human TNFR2 protein; TNFR2 protein; not shown: His tag
T1 sequence (looked up): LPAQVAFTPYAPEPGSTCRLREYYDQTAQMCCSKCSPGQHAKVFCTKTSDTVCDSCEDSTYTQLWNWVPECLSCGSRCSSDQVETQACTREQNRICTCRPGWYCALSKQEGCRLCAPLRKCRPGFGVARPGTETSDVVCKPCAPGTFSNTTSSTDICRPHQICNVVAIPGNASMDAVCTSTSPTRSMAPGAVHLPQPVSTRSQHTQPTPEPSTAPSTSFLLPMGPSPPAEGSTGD
As to the kind of experiment: ELISA: Human-TNFR2-His coated (0.1 ug/mL), antibody titrated, goat anti-human IgG Fc detection (Example 2). On the procedure:
(§1) Human-TNFR2-His (manufacturer: SINO, CAT: 10417-H08H, LOT: LC15NO0412) was diluted to 0.1 μg/mL with a coating solution (1×PBS, pH7.4), and coated in 96-well ELISA plate at 100 µL/well overnight at 4° C. The coating solution was poured off. Each well was washed with 1×PBST at 300 μL, washed 4 times with a plate washer, and patted dry on a flat paper. It was blocked with 3% skim milk powder at 300 μL/well, and incubated at 37° C. for 1 h. The blocking solution was poured off, washed 4 times with a plate washer, and patted dry on a flat paper. Negative control and positive control were set up. […] The positive control and antibody were diluted to 10 μg/mL with 3% skim milk powder as the starting concentration, and then diluted by 3-fold gradient (11 gradients in total), and a blank well was set up and only the diluent was added. It was incubated at 37° C. for 1 h at 100 μL/well. The liquid in the well was discarded, washed 4 times with a plate washer, and patted dry on a flat paper. Goat anti-human IgG Fc was diluted with 3% skim milk powder at 1:10000, and incubated at 37° C. for 1 h at 100 μL/well. It was washed 6 times with a plate washer, and patted dry on a flat paper. TMB color developing solution was added at 100 μL/well, and wrapped with aluminum foil. Color development was performed at 37° C. in the dark for 8 min. Termination solution 1M HCl was added to terminate the color development reaction at 100 μL/well. Readings were taken at 450 nm on an ELISA reader.
(An ELISA detects its analyte on a solid surface through an enzyme-linked reagent.)

Experiment [2] deals with T1, Human-TNFR2-His. The experiment is described as above. The source holds these as a separate data set.
In experiment [3] the target is T2, Human 4-1BB His (human, UniProt Q07011 24-186).
T2 construct: Bought protein; lots 198-2146F1-W6 and 2407c-214FF1-YC; also called human 4-1BB protein; 4-1BB protein; not shown: His tag
The experiment in a line: ELISA: Human 4-1BB His coated (0.2 ug/mL), antibody titrated, goat anti-human IgG Fc detection (Example 3). On the procedure: (§2) Human 4-1BB His (manufacturer: Acro, CAT: 41B-H5258, LOT: 198-2146F1-W6) was diluted to 0.2 μg/mL with a coating solution (1×PBS, pH7.4), and coated in 96-well ELISA plate at 100 μL/well overnight at 4° C. The coating solution was poured off. Each well was washed with 1×PBST at 300 μL, washed 4 times with a plate washer, and patted dry on a flat paper. It was blocked with 3% skim milk powder at 300 μL/well, and incubated at 37° C. for 1 h. The blocking solution was poured off, washed 4 times with a plate washer, and patted dry on a flat paper. Negative control and positive control were set up. […] The variable region of the antibody sequence of the positive control consists of SEQ ID NO: 15 and SEQ ID NO: 19, with the addition of the constant region of human IgG1 (SEQ ID NO: 46 and SEQ ID NO: 47). The positive control and antibody were diluted to 10 μg/mL with 3% skim milk powder as the starting concentration, and then diluted by 3-fold gradient (11 gradients in total), and a blank well was set up and only the diluent was added. It was incubated at 37° C. for 1 h at 100 μL/well. The liquid in the well was discarded, washed 4 times with a plate washer, and patted dry on a flat paper. Goat anti-human IgG Fc was diluted with 3% skim milk powder at 1:20000, and incubated at 37° C. for 1 h at 100 μL/well. It was washed 6 times with a plate washer, and patted dry on a flat paper. TMB color developing solution was added at 100 μL/well, and wrapped with aluminum foil. Color development was performed at 37° C. in the dark for 8 min. Termination solution 1M HCl was added to terminate the color development reaction at 100 μL/well. Readings were taken at 450 nm on an ELISA reader.

The target in experiment [4] is T2, Human 4-1BB His. The experiment in a line: BLI, antibody on AHC sensor, 100 nM 4-1BB His in solution. From the text: The variable region of the antibody sequence of the positive control consists of SEQ ID NO: 15 and SEQ ID NO: 19, with the addition of the constant region of human IgG1 (SEQ ID NO: 46 and SEQ ID NO: 47). The AHC sensor was soaked in 0.02% PBST (0.02% Tween 20, pH 7.4, 1× PBS) as a buffer for 600 s to remove the sucrose covering the sensor surface. The AHC sensor was equilibrated with 0.02% PBST (0.02% Tween 20, pH 7.4, 1× PBS) as a buffer for 60 s, the antibody in the sample plate was solidified for 300 s, and the secondary equilibration buffer was used for 180 s. 100 nM human 4-1BB His (manufacturer: Acro, CAT: 41B-H5258, LOT: 198-2146F1-W6) protein was bound to the antibody for 300 s and then dissociated for 600 s. After dissociation, 10 mM glycine (pH 2.0) was used as a regeneration buffer for 30 s. The sensor was regenerated with 10 mM glycine (pH 2.0).
For orientation: Biolayer interferometry detects binding as a change in optical thickness at a sensor tip.

In experiment [5] the target is T2, Human 4-1BB His. The experiment in a line: ELISA: Human 4-1BB His coated (0.2 ug/mL), antibody titrated, goat anti-human IgG Fc detection (Example 3). On the procedure: as §2
This is another data set of the same source.

Experiment [6] deals with T1, Human-TNFR2-His. As to the kind of experiment: ELISA: Human-TNFR2-His coated (0.1 ug/mL), antibody titrated, goat anti-human IgG Fc detection (Example 2). On the procedure: as §1
The source holds these as a separate data set.

Experiment [7] has as its target T2, Human 4-1BB His. As to the kind of experiment: ELISA: Human 4-1BB His coated (0.2 ug/mL), antibody titrated, goat anti-human IgG Fc detection (Example 3). On the procedure:
as §2
The source holds these as a separate data set.

Where two headings read alike, the source gives them in different places.

T2 sequence (Q07011 24-186 limits assumed): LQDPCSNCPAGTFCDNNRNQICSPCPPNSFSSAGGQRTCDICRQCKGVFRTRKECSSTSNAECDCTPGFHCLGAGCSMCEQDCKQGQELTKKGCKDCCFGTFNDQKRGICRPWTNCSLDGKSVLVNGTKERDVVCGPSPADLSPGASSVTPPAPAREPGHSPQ

B1: Antibody E1 (bispecific antibody, human IgG1, kappa)
light: DIVMTQSPATLSVSPGERATLSCKASQNVGSNVDWYQQKPGQSPRVLIYKASIRYTGIPARFSGSGSGTEFTLTISILQSEDFAVYFCMQSKSYPITFGQGTKLEIKRTVAAPSVFIFPPSDEQLKSGTASVVCLLNNFYPREAKVQWKVDNALQSGNSQESVTEQDSKDSTYSLSSTLTLSKADYEKHKVYACEVTHQGLSSPVTKSFNRGEC
heavy: not shown
notes: IgG1 subtype; full-length TNFR2 antibody with 4-1BB scFv at the C-terminus of the heavy chains
Usually EC50 (read off the curve) stands for the midpoint of the concentration-response curve. A high value points to weaker potency. A word on the Kd: it is a measure of binding affinity in units of concentration. High values mean a looser complex, low ones a tighter complex. In general, koff refers to the first-order rate constant of dissociation. Broadly, the kon is the second-order rate constant of association. A lower kon goes with slower complex formation. B1: in the experiment with Human-TNFR2-His [1], the “EC50 (read off the curve)” value was approximately 0.09 nM. For the same molecule, in the experiment with Human-TNFR2-His [2], the 50% effective concentration (EC50 (read off the curve)) is approximately 0.09 nM. Further, the concentration for a half-maximal effect (EC50 (read off the curve)) with Human 4-1BB His [3] was approximately 0.2 nM. Also, in the experiment with Human 4-1BB His [4], binding was put at a Kd of 18.1 nM, the koff came out at 0.00546 s⁻¹ and the on-rate constant (kon) was determined as 302000 M⁻¹ s⁻¹.

B2: Antibody J1 (bispecific antibody, human IgG1, kappa)
light: DIQMTQSPSSLSASLGDRVTISCSASQGISNYLNWYQQKPDGTVKLLIYYTSTLHSGVPSRFSGSGSGTDYTLTISSLQPEDIATYYCQQYSKLPWTFGGGTKLEIKRTVAAPSVFIFPPSDEQLKSGTASVVCLLNNFYPREAKVQWKVDNALQSGNSQESVTEQDSKDSTYSLSSTLTLSKADYEKHKVYACEVTHQGLSSPVTKSFNRGEC
heavy: not shown
notes: IgG1 subtype; full-length 4-1BB antibody with TNFR2 VHH at the C-terminus of the heavy chains
As for B2, in the experiment with Human-TNFR2-His [2], the “EC50 (read off the curve)” value was approximately 0.2 nM. Moreover, the “EC50 (read off the curve)” value with Human 4-1BB His [5] was approximately 0.09 nM. In addition, in the experiment with Human 4-1BB His [4], the equilibrium dissociation constant (Kd) was found to be 12.2 nM, the off-rate constant (koff) was 0.00616 s⁻¹ and the kon worked out at 503000 M⁻¹ s⁻¹.

B3: Antibody M1 (bispecific antibody, human IgG1, kappa)
light: DIQMTQSPSSLSASLGDRVTISCSASQGISNYLNWYQQKPDGTVKLLIYYTSTLHSGVPSRFSGSGSGTDYTLTISSLQPEDIATYYCQQYSKLPWTFGGGTKLEIKRTVAAPSVFIFPPSDEQLKSGTASVVCLLNNFYPREAKVQWKVDNALQSGNSQESVTEQDSKDSTYSLSSTLTLSKADYEKHKVYACEVTHQGLSSPVTKSFNRGEC
heavy: not shown
notes: IgG1 subtype; full-length 4-1BB antibody with TNFR2 VHH at the N-terminus of the heavy chains
With B3, the “EC50 (read off the curve)” value in the experiment with Human-TNFR2-His [6] is approximately 0.04 nM. Also, in the experiment with Human 4-1BB His [4], the Kd turned out to be 17.5 nM, the off-rate (koff) was 0.00647 s⁻¹ and the on-rate (kon) stood at 369000 M⁻¹ s⁻¹. Further, the “EC50 (read off the curve)” value with Human 4-1BB His [7] was approximately 0.09 nM.

B4: Antibody H (bispecific antibody, human IgG1, kappa)
light: QVQLQESGPGLVKPSETLSLTCTVSGSSLTSYGVHWVRQPPGKCLEGLGVIWPGGSTNYNSALMSRVTISKDNSKSQVSLKMSSLTAADTAVYYCARVTGTWYFDVWGQGTTVTVSSGGGGSGGGGSGGGGSDIQMTQSPSSLSASLGDRVTISCSASQGISNYLNWYQQKPDGTVKLLIYYTSTLHSGVPSRFSGSGSGTDYTLTISSLQPEDIATYYCQQYSKLPWTFGCGTKLEIKGGGGSGGGGSGGGGSDIVMTQSPATLSVSPGERATLSCKASQNVGSNVDWYQQKPGQSPRVLIYKASIRYTGIPARFSGSGSGTEFTLTISILQSEDFAVYFCMQSKSYPITFGQGTKLEIKRTVAAPSVFIFPPSDEQLKSGTASVVCLLNNFYPREAKVQWKVDNALQSGNSQESVTEQDSKDSTYSLSSTLTLSKADYEKHKVYACEVTHQGLSSPVTKSFNRGEC
heavy: not shown
notes: IgG1 subtype; full-length TNFR2 antibody with 4-1BB scFv at the N-terminus of the light chains
In the case of B4, the “EC50 (read off the curve)” value with Human 4-1BB His [5] was approximately 0.06 nM. In the experiment with Human 4-1BB His [4], this molecule had a Kd of 6.42 nM, a koff of 0.00435 s⁻¹ and an association rate constant (kon) of 677000 M⁻¹ s⁻¹.
